Results from the DeepSol protein solubility set.

Experiment: soluble on expression in E. coli; label from the status in PepcDB or PDB records
With “MNRSDKWQQRVAQVAYRFNQQYQNQSLELPAEVQEMPIYREWISGILAGKIASPFWEMAQPQKNQHCLDIGCGVSFLIYPWRDWQAFFYGQDVSNVARDTLNSRGSQLNSKLFKGVELGAAHQLKYTLSYFDLAIATGFSCYFPLEYWTSVLQAVKRVLKPDGHFVFDILNAAHPQAEDWAVLETYLGAEVFLEPVTEWEKIINAAGAKVVGRQPGEFFDLYKLRLEHHHHHH” the “soluble on expression in E. coli” value was “not soluble”. For “GPGSMDVSKRPREELHKEQCLSFVKKLWAADTLAMFHYPVSATEVPGYYDVVETPMDLSTIRKNIEQGTYRTDAEVENDVVLMLSNALDFNEKGSQWHDLAKQFKKQYLTLARESGLSFDADQAFIPTKKVRDDESTLRKAEKKGEEKLEDVLQAMEKDKEIPLEQLRAMYARRTTRGKADQQSSDFSSGRGNDDSDEVVSSDEEDTSDSGSGSYDTEEDEDSLDSESASKDDDDDK”, the “soluble on expression in E. coli” value was “soluble”. In the case of “MENKTNNTKTEIKKKDMSKTFETIKGELFFEDKVIQKIIGIALDEIDGLLTIDGGFFSNIAGKLVNTDNTTSGVDVEVGKKQVAVDLSIVAEYGKDVTTIYDKMKQVISNEVKKMTGLDVIEINVNVVDVKTKEQHENDSVTLQDHLSDAASATGEFASKQFEKSKEALGVASEKVSDGVQNVKEETEPRVKLEHHHHHH”, the “soluble on expression in E. coli” value is reported as “soluble”. With “MKFALQINEGPYQHQASDSAYQFAKAALEKGHEIFRVFFYHDGVNNSTRLTTPPQDDRHIVNRWAELAEQYELDMVVCVAAAQRRGIVDEGEASRNGKDATNIHPKFRISGLGQLVEAAIQADRLVVFGD” the “soluble on expression in E. coli” value was “soluble”. For “EERLKMSTTTSTQDSGLLKVLLPPFEKKNNVKVDVIAVGTGQALKLGEAGDVDVVFVHARKLEDKFVADGFGVNRKDVMYNDFVIVGPKNDPAGIAKAKTAAEALKLLATKGATFISRGDKSGTHTKELDLWKSAGVDPKGNWYVEAGQGMGPVITMATERRAYTLTDRGTYNAFKGAKTDLVILFQGEKGLFNPYGIMAVNPKKFPHVKYDLAMKLIDYVTGPEGLKIISDYKAHG”, the “soluble on expression in E. coli” value was “not soluble”. With “TEETNVLVLCAGGGTSGLLANALNKAAEEYGAPVKAAAGSYGAHREILDQYQLVILAPQVASNYEDMKAETDKLGIKLAKTEGAQYIGLTRDGKGALAFVEEQFKD” the “soluble on expression in E. coli” value was “not soluble”. With “HYNLKASNDAKIMKTLKEARQYEQSAKPTHIQQYFKHLGQMNYQIMTVDQKGHKTFYGEPFREDTLSQNAINNVLNNKDYHGIKDKPFALFVTGFFDNVTDNTVGINFKTKDGSIAVFMRPDIGETFSEFRT” the “soluble on expression in E. coli” value was “not soluble”. With “CVTGDTLVFTDKGLIEARKLEVGMKVWSGDGWNEIKEVINNGVKPVLKLKLKTGLEIKVTEEHKIFTGEGWKEAKDLKVGDKLYLPVSYPELDFPVKEENDFYEFLGYFLGDGSLSVSNHVSLHVGNDKELALYFKEKVEKYAGAAYLIERDGQYIIDVHRKEFAEKIKKIFGIEITDSKEKDIPSSLLAVNSEAMKALLRGLFSADGSVYDANGSITVALSSTSYPLLRKVQILLLSLGIPSTLTGEKDQDVKIIKGNEYETLPTYRLIISGERASLFFNKIGLIGEKKKKFLELMAGKTTYSTLNNHLYQEIVSIEPAGEEEVFDITAPPKYTWITNGILSLD” the “soluble on expression in E. coli” value was “soluble”. For “MKKPPLNICILRLSAIGDVCHTLAVIQAIQRQYPDIKISWIIGKTEAHLMQGIHNVELIPYDKKSGWQGIITLWKQLRNKRFDFLLNMQTALRASMLSLGIKATHKIGFNKDRAREMQSLFVDSQVEMTASPHVLDGQMMFAKAIGVTDLTPRWHLPVSSADLAYSNQFLNPHTQNVVIAPCSSKTEKDWDIASNAEIAKWLTDQNINVIIVGSPTDYECATANQIKQLAPKVINTTGKTTLKQLAALIKQVDLVIAPDTGVAHIATTQHTRVIGLYAIHNPRRTAPYSDQANVISVYDQAILDYYGTSWDKLAWATKAKSKKGEKLMQRITVEEVKQKIVETLNLKL”, the “soluble on expression in E. coli” value was “not soluble”. With “GHHHHHHHHHHSSGHIEGRHMRVLFVSSPGIGHLFPLIQLAWGFRTAGHDVLIAVAEHADRAAAAGLEVVDVAPDYSAVKVFEQVAKDNPRFAETVATRPAIDLEEWGVQIAAVNRPLVDGTMALVDDYRPDLVVYEQGATVGLLAADRAGVPAVQRNQSAWRTRGMHRSIASFLTDLMDKHQVSLPEPVATIESFPPSLLLEAEPEGWFMRWVPYGGGAVLGDRLPPVPARPEVAITMGTIELQAFGIGAVEPIIAAAGEVDADFVLALGDLDISPLGTLPRNVRAVGWTPLHTLLRTCTAVVHHGGGGTVMTAIDAGIPQLLAPDPRDQFQHTAREAVSRRGIGLVSTSDKVDADLLRRLIGDESLRTAAREVREEMVALPTPAETVRRIVERISG” the “soluble on expression in E. coli” value was “soluble”. With “MSLHILHIASSPRGERSVSLKLASRYLETLTSLHPESTVDVLDVWTIDLLPFDGPALEAKYADLQGVQMSDEQQAVWKQIHALGERFHRADVILFSVPMWNFGVPYRLKHLIDSVSQRGVLFEFDAQGMRGLLKGKNVVVFASRGVALGEDFPTEAYDHQVAYLKTWARMVGIPTIDAVLSEATLADPATAEANFTAALAEASKLAAAVQEGHHHHHH” the “soluble on expression in E. coli” value was “soluble”. With “MHSALWVSKTGMAAQDTKMTAISNNLANVNTVGFKRDRVVFEDLFYSIQRQPGAQVDQVNELPSGVQLGSGVRVVGTQKVFTQGNTQNTTQDLDLAVMGQGFFQIENSDGQIMYTRNGQFHINSEGLMVNSQGLPLEPQIQI” the “soluble on expression in E. coli” value was “not soluble”. For “MLQVCCYTSEGYKYAVGIDLVRFFDTVNHSFLLRILSRTINDGRVISLIHKYLTSGVMIGKHYEPSIEGTPQGAPLSPLLSNILLNELDKELERRGHCFVRYADDSMILCKSKRSAERVCSSITDFSFYFTKGKCRLCVHKTTKEKFKRKVKSLTRRSNSMGYAQRKEILWQTFRGWIGYFKYADMRSLLIPLDQWYRRHLRMCIWKCWKRVKTRFSNLQKCGIPKGKA”, the “soluble on expression in E. coli” value was “not soluble”. In the case of “MNTCPLCHSTDLVAYHHDKRRPYQQCQRCALVSVPAEFYLSRDEEKAEYDKHENHPQDLGYQQFLDRTLAPLLARFESTALGLDFGCGEGKALSLMAQARGYRVENYDLYYANHPELLTRQYDFITLTEVIEHVSDADALLTQLKGMLKPKGILAVMTKRVLNPTAFSTWHYKNDPTHINFYAEATFQWLAEHYGWRLEVIDKDVVFLYQANLEHHHHHH”, the “soluble on expression in E. coli” value is reported as “soluble”. With “MDELNRGHAGRTVIRNIEAACEMDPEKRVVISKTDQGSEANMPGHWTGCARPTRDPFVPFVAGRGESVAVRYNSRFGRRFDDQSVNGQPDPSLAYVFLGHELIHASRTLQGTQYRVSRGRPDVDEDSGAAEEELRTVGIGQYEDEYPSENAIRREHGLAPRTSYSGNTGTNLREPPERNSQYTEARLRSLNARRWSDM” the “soluble on expression in E. coli” value was “not soluble”. In the case of “MADEPLHYGEDYHFIHATSAASGLGVSVLPDLYCHTIQIVNICLVGRPDDHAFVLVDAGMPGSADDIVSVVEDRFGSGSRPQAIVLTHGHFDHVGAIVELVKHWNVPVYAHPAELPYLTGKASYPEPDASVEGGFIAKISPFFPNEPIQLGNRVQPLPADGTVPHLPEFRWIHTPGHTPGHISLFRPRDAALIAGDAFVTVRQDSLYKVLTQQIEISGPPRYYTIDWRAARESVRKLAALFPSVAITGHGAPVAGKELREGLTKLARDFDRIATPDYGKYVH”, the “soluble on expression in E. coli” value is reported as “soluble”. In the case of “VTNSTDGRADGRLRVVVLGSTGSIGTQALQVIADNPDRFEVVGLAAGGAHLDTLLRQRAQTGVTNIAVADEHAAQRVGDIPYHGSDAATRLVEQTEADVVLNALVGALGLRPTLAALKTGARLALANKESLVAGGSLVLRAARPGQIVPVDSEHSALAQCLRGGTPDEVAKLVLTASGGPFRGWSAADLEHVTPEQAGAHPTWSMGPMNTLNSASLVNKGLEVIETHLLFGIPYDRIDVVVHPQSIIHSMVTFIDGSTIAQASPPDMKLPISLALGWPRRVSGAAAACDFHTASSWEFEPLDTDVFPAVELARQAGVAGGCMTAVYNAANEEAAAAFLAGRIGFPAIVGIIADVLHAADQWAVEPATVDDVLDAQRWARERAQRAVSGMASVAIASTAKPGAAGRHASTLERS”, the “soluble on expression in E. coli” value is reported as “soluble”. For “MTATWSVNKKIFLQNAITVKNNQPLMAVVKNNAYHYDLEFAVTQFIHAGIDTFSTTSLREAIQIRQLAPDATIFLMNAVYEFDLVREHQIHMTLPSLTYYYNHKNDLAGIHVHLEFENLLHRSGFKDLNEIKEVLKDHHHNQNAKMIISGLWTHFGYADEFDVSDYNVERSQWMEIVEALLSEGYQFDLIHAQNSASFYREGQILLPHHTHARVGIALYGSRPYSSLNQHDIVQSLTLKAHVIQVREVQAGDYCGYSFAFEVTKNNTKLAVVDIGYGDGILRTRAKHEALINGKRYPIRALMMSHMFVEVDGNVHAQDEVILYNNDIRIDEYTFKGVGANSEQLSAMNHDSLKKEYISNDC”, the “soluble on expression in E. coli” value was “not soluble”. In the case of “GQHTLKQFAADSALTTTTPLCSEVPLFDINALGDWTYLGTSLPAKFAKLFASILHCIDDEYFLITPVEKVRVQVEDAPLLIVDFERAQPHSLLNVSTSIGTLHHNVDIKQMKLTDDSVYLPLERGLWGKLGRACYYNFVNEFNLSDLNEQ”, the “soluble on expression in E. coli” value is reported as “soluble”. With “MGSDKIHHHHHHMRRSSLKEPGPASAIRTENFTRGMGEVPAALGKVCRGGSHAKAHERGLIMLISQILDDAETIRVVARNGGKTRIINGARSVYSLAMEAARTGVGLATLIERKGLGETVDLDAAYKKGRLLSPINHPDPAHLHLTGTGLTHLGSAATRDSMHKKLSSADGEEQLTDSMKMFRMGLEGGKPAKGQVGVQPEWFYKGNGTMAVAPGAALLSPAFAKDAGEEPEIAGIYVIGDDGAPFRVGFTLSNEFSDHVTERVNYLFLAHSKLRNASFGPEILIGDLPSDIRGTSRIVRDGETLWEKPFLSGEANMSHTIANLEHHHFKYSAFRQPGDVHVHMFGTATLSFADGVKTEAGDVFEIEAGDFGLPLRNPLEIEKPVKVAVKAL” the “soluble on expression in E. coli” value was “not soluble”. For “MGSDKIHHHHHHMPTYDAVIVGSGINSLVCAAVLARSGKRVCVLERNSTLGGCIRTEALHAPGYLHDTLSTAHPLFVTSPGYAELKDDLHQAGLSYANNDTPTGVLLPGNRSLILATSRERNVSAFNALASGDGDAYLAAMQEVEQNAGLVFSLLGNELWSADVAKTVAGRLWKQGVHDTVAFFSPALMSCRSWLETRIRSDLVRALLAPWVLHTGLGPESAMSALMGKVVAFSLEAVGLPIVQGGNARTVEAFRQIVESHGGAFHVNADVEDVLVENGSARGVRTRDDRVFMGKEIICNVTPGQLYGKLLAPAHVPPALRQQAAEYRYGKGNMQIHLSLSAPPDWPHAHLRNVIYLHLTSGLDGVSRAVSEAERGLLPAEGTICVAQPCAVDPSRSPAGGWVLWIQVPECPRTIKGDALGEIDAPADGRWTPEIRERYADRIIDRIARQVPNLKASIVGRTVLSPADLEAMNINLVGGDPYSGECSIDQFMVWRPLRGARNHATPVKHLHHIGASTHPGPGLGGTSGYHVANALARKRAKSNRT”, the “soluble on expression in E. coli” value was “not soluble”. In the case of “MSCSSSSMLFLVLIATTVLIAESRVFYNRFDGGLSSDRFMEQKRDGAEASYDYDANQVIRNTMKRNRQCLLNAGLSQGCDFSDLLHAQTQARKFMSFAGPGK”, the “soluble on expression in E. coli” value is reported as “not soluble”. With “ESEILGLFQRWQAAHGQRSGKALEGVYAPRLDYYGRAQTRERTLSAKQAFFARHPDFEQRIVAAPQIVPGDQEGRYEVRFVKQVRLDGRLRNYPGLLLAERAGPGDTWRFVGESDEITRYAVDPRYTPLARGRFAGTEADFAWVVAHAPNSAALCDEYEDCRCDLWSADARVPPK” the “soluble on expression in E. coli” value was “not soluble”.
